The values that follow come from patent publication US20240269235A1 (Gilead, published 2024).

Test [1] addresses T1, trimeric murine IL-2 receptor (IL-2Rα, IL-2Rβ, and IL-2Rγ) on CTLL-2 cells (murine, UniProt P01590 22-268; P16297 27-539; P34902 23-369).
T1 sequence (looked up) 1: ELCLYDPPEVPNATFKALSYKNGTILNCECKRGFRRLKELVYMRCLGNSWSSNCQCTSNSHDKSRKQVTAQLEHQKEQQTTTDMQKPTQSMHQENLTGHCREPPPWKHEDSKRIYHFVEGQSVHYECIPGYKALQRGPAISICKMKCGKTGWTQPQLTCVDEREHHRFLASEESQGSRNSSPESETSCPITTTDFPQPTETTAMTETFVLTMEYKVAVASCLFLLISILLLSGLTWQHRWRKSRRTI
T1 sequence (looked up) 2: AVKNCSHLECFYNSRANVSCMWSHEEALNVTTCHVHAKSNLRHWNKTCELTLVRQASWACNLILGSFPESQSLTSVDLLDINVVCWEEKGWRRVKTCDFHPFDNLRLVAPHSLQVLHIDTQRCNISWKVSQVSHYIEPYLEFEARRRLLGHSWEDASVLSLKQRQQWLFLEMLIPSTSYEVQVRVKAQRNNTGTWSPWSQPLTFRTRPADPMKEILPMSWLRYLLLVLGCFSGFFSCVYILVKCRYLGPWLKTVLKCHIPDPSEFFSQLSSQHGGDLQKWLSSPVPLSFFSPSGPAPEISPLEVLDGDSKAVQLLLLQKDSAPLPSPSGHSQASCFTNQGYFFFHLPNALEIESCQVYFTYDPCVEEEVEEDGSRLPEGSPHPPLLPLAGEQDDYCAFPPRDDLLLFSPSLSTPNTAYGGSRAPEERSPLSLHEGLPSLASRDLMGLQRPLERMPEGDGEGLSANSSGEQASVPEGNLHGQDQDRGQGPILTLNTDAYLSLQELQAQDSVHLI
T1 sequence (looked up) 3: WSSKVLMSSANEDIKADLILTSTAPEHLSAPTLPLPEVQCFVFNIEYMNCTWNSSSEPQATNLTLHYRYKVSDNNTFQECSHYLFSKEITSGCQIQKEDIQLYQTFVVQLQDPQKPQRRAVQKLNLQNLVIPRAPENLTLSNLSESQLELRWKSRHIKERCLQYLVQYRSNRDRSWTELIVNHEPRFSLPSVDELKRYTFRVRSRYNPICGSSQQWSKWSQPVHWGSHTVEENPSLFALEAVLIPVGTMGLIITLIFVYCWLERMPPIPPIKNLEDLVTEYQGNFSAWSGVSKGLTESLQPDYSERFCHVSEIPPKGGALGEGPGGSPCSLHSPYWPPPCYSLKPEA
Put plainly: cell-based or functional assay.

Test [2] concerns the target T2, IL-2Rβ and IL-2Rγ on Ba/F3 cells engineered to express murine IL-2Rβ (murine, UniProt P16297 27-539; P34902 23-369).
T2 sequence (looked up) 1: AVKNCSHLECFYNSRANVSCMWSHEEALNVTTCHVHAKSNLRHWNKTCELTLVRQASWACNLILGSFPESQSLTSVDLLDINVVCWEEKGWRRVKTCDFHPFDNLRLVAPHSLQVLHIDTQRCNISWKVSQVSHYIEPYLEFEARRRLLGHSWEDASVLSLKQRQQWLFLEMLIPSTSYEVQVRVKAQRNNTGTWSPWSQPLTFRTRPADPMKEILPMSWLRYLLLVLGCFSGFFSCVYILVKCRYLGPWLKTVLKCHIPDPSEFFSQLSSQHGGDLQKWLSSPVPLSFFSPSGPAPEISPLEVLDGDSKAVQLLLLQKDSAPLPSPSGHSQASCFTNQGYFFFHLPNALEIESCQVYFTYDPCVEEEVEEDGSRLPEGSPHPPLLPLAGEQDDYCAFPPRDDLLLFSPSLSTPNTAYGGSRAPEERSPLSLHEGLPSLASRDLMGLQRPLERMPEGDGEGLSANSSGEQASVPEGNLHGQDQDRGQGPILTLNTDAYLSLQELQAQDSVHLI
T2 sequence (looked up) 2: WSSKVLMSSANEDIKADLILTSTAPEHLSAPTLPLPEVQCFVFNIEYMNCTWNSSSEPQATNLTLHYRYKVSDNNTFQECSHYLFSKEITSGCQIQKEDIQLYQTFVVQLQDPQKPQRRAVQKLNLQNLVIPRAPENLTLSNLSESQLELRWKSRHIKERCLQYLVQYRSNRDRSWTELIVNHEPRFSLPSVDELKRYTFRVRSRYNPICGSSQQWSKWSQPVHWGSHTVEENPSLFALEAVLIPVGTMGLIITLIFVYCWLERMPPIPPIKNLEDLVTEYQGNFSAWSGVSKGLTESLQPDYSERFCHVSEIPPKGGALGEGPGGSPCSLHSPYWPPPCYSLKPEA
The experiment in a line: cell-based or functional assay.

B1: mouse surrogate Fc-IL-2 heterodimer 165.250 (IL2v_C140A), native IL-2Rα binding interface (Fc fusion)
chain 1: GPTIKPCPPCKCPAPNAAGGPSVFIFPPKIKDVLMISLSPIVTCVVVDVSEDDPDVQISWFVNNVEVHTAQTQTHREDYNSTLRVVSALPIQHQDWMSGKEFKCKVNNKDLGAPIERTISKPKGSVRAPQVYVLPPPEEEMTKKQVTLWCMVTDFMPEDIYVEWTNNGKTELNYKNTEPVLDSDGSYFMYSKLRVEKKNWVERNSYSCSVVHEGLHNHHTTKSFSRTPGGGGGSGGGGSGGGGSGGGGSQQQHLEQLLMDLQELLSRMENYRNLKLPRMLTFKFYLPKQATELKDLQCLEDELGPLRHVLDLTQSKSFQLEDAENFISNIRVTVVKLKGSDNTFECQFDDESATVVDFLRRWIAFAQSIISTSPQ
chain 2: GPTIKPCPPCKCPAPNAAGGPSVFIFPPKIKDVLMISLSPIVTCVVVDVSEDDPDVQISWFVNNVEVHTAQTQTHREDYNSTLRVVSALPIQHQDWMSGKEFKCKVNNKDLGAPIERTISKPKGSVRAPQVYVLPPPEEEMTKKQVTLSCAVTDFMPEDIYVEWTNNGKTELNYKNTEPVLDSDGSYFMVSKLRVEKKNWVERNSYSCSVVHEGLHNHHTTKSFSRTPGK
As to B1, in test [1], the “pSTAT5 EC50, STAT5 activation of CTLL-2 cells” value (“pSTAT5 EC50, STAT5 activation” for short) turned out to be 0.002 nM. Also, the “Proliferation EC50, Ba/F3 cells” value in test [2] is 4.1 nM.

B2: mouse surrogate Fc-IL-2v heterodimer 171.250 (IL2v_R52G_F56A_E76A_C140A) (Fc fusion)
chain 1: GPTIKPCPPCKCPAPNAAGGPSVFIFPPKIKDVLMISLSPIVTCVVVDVSEDDPDVQISWFVNNVEVHTAQTQTHREDYNSTLRVVSALPIQHQDWMSGKEFKCKVNNKDLGAPIERTISKPKGSVRAPQVYVLPPPEEEMTKKQVTLWCMVTDFMPEDIYVEWTNNGKTELNYKNTEPVLDSDGSYFMYSKLRVEKKNWVERNSYSCSVVHEGLHNHHTTKSFSRTPGGGGGSGGGGSGGGGSGGGGSQQQHLEQLLMDLQELLSRMENYRNLKLPGMLTAKFYLPKQATELKDLQCLEDALGPLRHVLDLTQSKSFQLEDAENFISNIRVTVVKLKGSDNTFECQFDDESATVVDFLRRWIAFAQSIISTSPQ
chain 2: GPTIKPCPPCKCPAPNAAGGPSVFIFPPKIKDVLMISLSPIVTCVVVDVSEDDPDVQISWFVNNVEVHTAQTQTHREDYNSTLRVVSALPIQHQDWMSGKEFKCKVNNKDLGAPIERTISKPKGSVRAPQVYVLPPPEEEMTKKQVTLSCAVTDFMPEDIYVEWTNNGKTELNYKNTEPVLDSDGSYFMVSKLRVEKKNWVERNSYSCSVVHEGLHNHHTTKSFSRTPGK
Take B2: in test [1], the “pSTAT5 EC50, STAT5 activation” value came out at 88.7 nM. In addition, in test [2], the “Proliferation EC50, Ba/F3 cells” value stood at 13 nM.

B3: mouse surrogate Fc-IL-2v heterodimer 166.250 (IL2v_F56A_Y59A_L86G_C140A) (Fc fusion)
chain 1: GPTIKPCPPCKCPAPNAAGGPSVFIFPPKIKDVLMISLSPIVTCVVVDVSEDDPDVQISWFVNNVEVHTAQTQTHREDYNSTLRVVSALPIQHQDWMSGKEFKCKVNNKDLGAPIERTISKPKGSVRAPQVYVLPPPEEEMTKKQVTLWCMVTDFMPEDIYVEWTNNGKTELNYKNTEPVLDSDGSYFMYSKLRVEKKNWVERNSYSCSVVHEGLHNHHTTKSFSRTPGGGGGSGGGGSGGGGSGGGGSQQQHLEQLLMDLQELLSRMENYRNLKLPRMLTAKFALPKQATELKDLQCLEDELGPLRHVLDGTQSKSFQLEDAENFISNIRVTVVKLKGSDNTFECQFDDESATVVDFLRRWIAFAQSIISTSPQ
chain 2: GPTIKPCPPCKCPAPNAAGGPSVFIFPPKIKDVLMISLSPIVTCVVVDVSEDDPDVQISWFVNNVEVHTAQTQTHREDYNSTLRVVSALPIQHQDWMSGKEFKCKVNNKDLGAPIERTISKPKGSVRAPQVYVLPPPEEEMTKKQVTLSCAVTDFMPEDIYVEWTNNGKTELNYKNTEPVLDSDGSYFMVSKLRVEKKNWVERNSYSCSVVHEGLHNHHTTKSFSRTPGK
Turning to B3, the “pSTAT5 EC50, STAT5 activation” value in test [1] came to 5.4 nM. In test [2], the “Proliferation EC50, Ba/F3 cells” value came out at 9.5 nM.

B4: mouse surrogate Fc-IL-2v heterodimer 168.250 (IL2v_F56A_E76A_C140A) (Fc fusion)
chain 1: GPTIKPCPPCKCPAPNAAGGPSVFIFPPKIKDVLMISLSPIVTCVVVDVSEDDPDVQISWFVNNVEVHTAQTQTHREDYNSTLRVVSALPIQHQDWMSGKEFKCKVNNKDLGAPIERTISKPKGSVRAPQVYVLPPPEEEMTKKQVTLWCMVTDFMPEDIYVEWTNNGKTELNYKNTEPVLDSDGSYFMYSKLRVEKKNWVERNSYSCSVVHEGLHNHHTTKSFSRTPGGGGGSGGGGSGGGGSGGGGSQQQHLEQLLMDLQELLSRMENYRNLKLPRMLTAKFYLPKQATELKDLQCLEDALGPLRHVLDLTQSKSFQLEDAENFISNIRVTVVKLKGSDNTFECQFDDESATVVDFLRRWIAFAQSIISTSPQ
chain 2: GPTIKPCPPCKCPAPNAAGGPSVFIFPPKIKDVLMISLSPIVTCVVVDVSEDDPDVQISWFVNNVEVHTAQTQTHREDYNSTLRVVSALPIQHQDWMSGKEFKCKVNNKDLGAPIERTISKPKGSVRAPQVYVLPPPEEEMTKKQVTLSCAVTDFMPEDIYVEWTNNGKTELNYKNTEPVLDSDGSYFMVSKLRVEKKNWVERNSYSCSVVHEGLHNHHTTKSFSRTPGK
Consider B4, for which the “pSTAT5 EC50, STAT5 activation” value in test [1] came to 63.1 nM. The “Proliferation EC50, Ba/F3 cells” value in test [2] turned out to be 20.6 nM.

B5: mouse surrogate Fc-IL-2v heterodimer 167.250 (IL2v_F56A_C140A) (Fc fusion)
chain 1: GPTIKPCPPCKCPAPNAAGGPSVFIFPPKIKDVLMISLSPIVTCVVVDVSEDDPDVQISWFVNNVEVHTAQTQTHREDYNSTLRVVSALPIQHQDWMSGKEFKCKVNNKDLGAPIERTISKPKGSVRAPQVYVLPPPEEEMTKKQVTLWCMVTDFMPEDIYVEWTNNGKTELNYKNTEPVLDSDGSYFMYSKLRVEKKNWVERNSYSCSVVHEGLHNHHTTKSFSRTPGGGGGSGGGGSGGGGSGGGGSQQQHLEQLLMDLQELLSRMENYRNLKLPRMLTAKFYLPKQATELKDLQCLEDELGPLRHVLDLTQSKSFQLEDAENFISNIRVTVVKLKGSDNTFECQFDDESATVVDFLRRWIAFAQSIISTSPQ
chain 2: GPTIKPCPPCKCPAPNAAGGPSVFIFPPKIKDVLMISLSPIVTCVVVDVSEDDPDVQISWFVNNVEVHTAQTQTHREDYNSTLRVVSALPIQHQDWMSGKEFKCKVNNKDLGAPIERTISKPKGSVRAPQVYVLPPPEEEMTKKQVTLSCAVTDFMPEDIYVEWTNNGKTELNYKNTEPVLDSDGSYFMVSKLRVEKKNWVERNSYSCSVVHEGLHNHHTTKSFSRTPGK
On to B5, for which, in test [1], the “pSTAT5 EC50, STAT5 activation” value was 0.12 nM. For the same molecule, the “Proliferation EC50, Ba/F3 cells” value in test [2] worked out at 5.2 nM.
